Measured values: patent publication US20020168363A1, “Integrin/adhesion antagonists” (Amgen Inc., priority 2000, published 2002)

Tests used:
human αvβ3 = target: T1, human αvβ3 (Homo sapiens, UniProt P05106+P06756); test: Solid phase binding assay (Vitronectin-Ru, integrin coated paramagnetic beads); settings: FIGS. 4A and 4B
T1 construct: tissue Chemicon International Inc. (alternative source, catalogue number not given); host or cells: placenta
Experimental: (§1) Ruthenylation of Vitronectin and Fibrinogen. Purified human vitronectin or purified human fibrinogen (Calbiochem) was dialyzed into 50 mM borate, 100 mM NaCl pH 8.0. A stock solution of ruthenium (II) tris bipyridine N-hydroxysuccinimide ester (Origen TAG® Ester, Igen Inc. Gaithersburg, Md.) was freshly prepared by adding 50 μL DMSO to 150 μg of the Origen TAG-NHS ester. Fifty microliters of the Origen TAG-NHS ester was added to one fifth molar ratio of the matrix protein. After one hour incubation at […], the reaction was quench by the addition of 50 μL of 2 M glycine. Unincorporated ruthenium and excess glycine were removed by dialysis into PBS, 0.05% NaN3. Protein concentrations were determined using Micro-BCA (Pierce, Rockford, Ill.). Origen TAG incorporation was assessed at 455 nm (e=13,700 M^−1 cm^−1). Vitronectin-Ru and Fibrinogen-Ru were stored at −70° C. until needed. […]
(§2) Solid Phase Binding Assay. […] The assay mixture was incubated at 25° C. for two hours with agitation and subsequently read on an Origen Analyzer® (Igen Inc. Gaithersburg, Md.) Non-specific binding was determined using 1 μM Vitronectin, 1 μM Fibrinogen or 5 mM EDTA. The data was prepared using a four-parameter fit by the Levenburg Marquardt algorithm (XLfit® ID Business Solutions.) Ki values were calculated using the equation of Cheng and Prusoff (1973) Biochem. Pharmacology 22: 3099-3108.

GPIIb/IIIa = target: T2, GPIIb/IIIa (Homo sapiens, UniProt P05106+P08514); test: Inhibition of ruthenium-labeled human fibrinogen (fibrinogen-ru) binding to GPIIb/IIIa, solid phase binding assay; settings: FIGS. 5A and 5B
T2 construct: The washed platelets were lysed in, 20 mM Tris-HCl pH 7.4, 140 mM NaCl, 2 mM CaCl2, 1 mM pefabloc, 3% octylglucoside; from tissue; host or cells: outdated platelets
Experimental: as §1, §2

HT1080 cells = test: Effect on the growth of HT1080 cells; assay type: cell-based, human
Experimental: Laminin activity assay: Apoptosis of HT-1080 human fibrosarcoma cells. HT-1080 cells from a human fibrosarcoma are cultured in DMEM supplemented with 10% fetal bovine serum, 100 μg/ml streptomycin and 100 units/ml penicillin. The culture is started at a density of 5×10^4 cells per plate. The Fc-peptides (Fc-YIGSR, Fc-(YIGSR)2, YIGSR-Fc, or (YIGSR)2-Fc)) at various concentrations are added to each plate, and after 16 hours the cells are harvested for evaluation of apoptosis with crystal violet solution at 560 nm absorbance. The DNA fragmentation analysis is also carried out to assess the degree of apoptosis in a 1.5% agarose gel and visualized by ethidium bromide staining.
Two additional laminin peptides, (YIGSR)3 and (YIGSR)5 from Table 6 herein, were fused to human IgG1. Those fusion peptides were designated as laminin-3 ((YIGSR)3-Fc) and laminin-5 ((YIGSR)5-Fc). The purified peptide-Fc fusions were examined for their effect on the growth of HT1080 cells as described in Example 1. […] A 50-fold enhancement was seen after it was fused to human IgG1.

T1 sequence (P06756 31-889 limits assumed): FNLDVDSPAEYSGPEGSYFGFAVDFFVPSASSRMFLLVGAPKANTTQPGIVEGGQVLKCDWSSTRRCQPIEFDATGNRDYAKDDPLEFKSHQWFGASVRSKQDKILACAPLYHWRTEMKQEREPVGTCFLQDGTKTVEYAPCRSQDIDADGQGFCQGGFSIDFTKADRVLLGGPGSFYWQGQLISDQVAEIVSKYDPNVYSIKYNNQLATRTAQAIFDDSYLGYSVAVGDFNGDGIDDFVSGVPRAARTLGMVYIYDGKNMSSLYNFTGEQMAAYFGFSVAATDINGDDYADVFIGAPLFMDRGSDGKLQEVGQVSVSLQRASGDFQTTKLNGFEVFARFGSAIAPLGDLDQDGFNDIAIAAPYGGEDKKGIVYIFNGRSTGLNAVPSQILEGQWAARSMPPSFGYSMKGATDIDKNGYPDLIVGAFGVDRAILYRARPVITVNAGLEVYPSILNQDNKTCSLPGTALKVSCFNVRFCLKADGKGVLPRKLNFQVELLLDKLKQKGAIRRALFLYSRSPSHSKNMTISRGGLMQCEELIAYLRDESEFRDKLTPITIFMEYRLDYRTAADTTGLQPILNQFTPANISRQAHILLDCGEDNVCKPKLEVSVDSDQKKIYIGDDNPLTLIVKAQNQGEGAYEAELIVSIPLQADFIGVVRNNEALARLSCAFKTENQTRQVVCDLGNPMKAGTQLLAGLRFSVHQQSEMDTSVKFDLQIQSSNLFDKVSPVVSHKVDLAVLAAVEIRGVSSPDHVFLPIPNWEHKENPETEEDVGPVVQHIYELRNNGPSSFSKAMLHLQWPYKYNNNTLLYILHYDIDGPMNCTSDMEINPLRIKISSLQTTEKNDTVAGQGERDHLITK
T1 sequence (P06756 891-1048 partner limits assumed): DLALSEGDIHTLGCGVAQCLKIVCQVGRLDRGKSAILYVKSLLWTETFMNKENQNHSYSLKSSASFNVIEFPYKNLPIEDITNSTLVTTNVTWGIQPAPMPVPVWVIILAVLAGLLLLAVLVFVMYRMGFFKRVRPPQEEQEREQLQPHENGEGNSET
T1 sequence (P05106 27-788): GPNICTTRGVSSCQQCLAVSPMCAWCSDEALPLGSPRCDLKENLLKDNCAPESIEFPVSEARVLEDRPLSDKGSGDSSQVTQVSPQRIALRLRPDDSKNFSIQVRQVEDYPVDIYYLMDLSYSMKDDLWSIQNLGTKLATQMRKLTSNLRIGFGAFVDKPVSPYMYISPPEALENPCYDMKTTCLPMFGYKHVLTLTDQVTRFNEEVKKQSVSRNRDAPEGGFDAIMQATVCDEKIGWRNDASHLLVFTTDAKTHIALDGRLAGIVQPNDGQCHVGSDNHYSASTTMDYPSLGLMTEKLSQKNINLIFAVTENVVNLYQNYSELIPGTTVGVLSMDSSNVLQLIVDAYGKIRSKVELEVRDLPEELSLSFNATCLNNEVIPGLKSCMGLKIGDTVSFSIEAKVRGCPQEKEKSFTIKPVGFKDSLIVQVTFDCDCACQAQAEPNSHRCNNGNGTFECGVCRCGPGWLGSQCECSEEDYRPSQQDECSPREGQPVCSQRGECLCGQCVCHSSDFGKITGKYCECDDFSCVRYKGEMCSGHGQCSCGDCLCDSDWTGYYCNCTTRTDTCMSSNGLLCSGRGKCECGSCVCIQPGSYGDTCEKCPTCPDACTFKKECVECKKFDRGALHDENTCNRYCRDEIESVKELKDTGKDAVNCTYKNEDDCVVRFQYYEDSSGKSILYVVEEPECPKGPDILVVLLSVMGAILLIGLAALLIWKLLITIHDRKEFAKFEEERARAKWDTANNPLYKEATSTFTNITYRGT

Row | Substance | binding to human αvβ3 (human αvβ3) | inhibition of fibrinogen-ru binding to GPIIb/IIIa (GPIIb/IIIa) | IC100 (HT1080 cells)
1 | Echistatin-Fc: echistatin fused via a 5 glycine linker to the C-terminus of the Fc portion of human IgG1 (SEQ ID NO: 109) | binds with high affinity | inhibition | 
2 | YIGSRYIGSRYIGSR [(YIGSR)3] |  |  | 2.9 µM
